For test [1], the target named is IL-1 receptor (IL-1R) (rat) (UniProt Q02955). Kind of test: co-immunoprecipitation, adult control rats, hippocampal synaptosomes, mean±SEM.
Test [2] has the same target. Kind of test: co-immunoprecipitation, adult ENV-expressing rats, hippocampal synaptosomes, mean±SEM.

Chain of UniProt Q02955 (Q02955 20-576): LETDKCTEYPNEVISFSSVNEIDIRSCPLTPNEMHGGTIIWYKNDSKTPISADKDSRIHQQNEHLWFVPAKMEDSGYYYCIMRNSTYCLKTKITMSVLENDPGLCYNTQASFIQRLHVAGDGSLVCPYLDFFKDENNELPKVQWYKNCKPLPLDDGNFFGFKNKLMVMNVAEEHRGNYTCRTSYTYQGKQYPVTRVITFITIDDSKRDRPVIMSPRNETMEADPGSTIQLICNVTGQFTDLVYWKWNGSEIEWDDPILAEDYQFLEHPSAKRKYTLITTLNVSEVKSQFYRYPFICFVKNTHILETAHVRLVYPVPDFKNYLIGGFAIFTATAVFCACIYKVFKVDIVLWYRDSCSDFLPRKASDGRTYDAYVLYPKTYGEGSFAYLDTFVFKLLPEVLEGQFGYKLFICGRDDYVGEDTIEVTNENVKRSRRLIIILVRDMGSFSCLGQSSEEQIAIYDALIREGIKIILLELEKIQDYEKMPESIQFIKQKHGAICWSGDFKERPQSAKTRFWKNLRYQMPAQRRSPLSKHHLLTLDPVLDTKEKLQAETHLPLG

For the substance “GluN2A-NMDAR (GluN2A-containing NMDA receptor) (from UniProt Q00959 23-1464)”, the co-IP GluN2A/IL-1R (normalised to control animals) in test [1] is 1; in test [2], 1.04.

For “GluN2B-NMDAR (GluN2B-containing NMDA receptor) (from UniProt Q00960 27-1482)”, the co-IP GluN2B/IL-1R (normalised to control animals) in test [1] was determined as 1; in test [2], 0.95.
